Tested on: peptide library, one residue held at a place counted from the S/T acceptor
Test: relative phosphorylation of the sub-library (ratio to the mean residue at this position); higher = residue favoured
In short: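 Each biotinylated degenerate peptide sub-library fixed one residue at one position around a central Ser/Thr and was incubated with a purified recombinant kinase, a human or orthologue construct, in 384-well plates. The 90 min reactions, under kinase-specific conditions, contained 50 μM peptide and 50 μM ATP spiked with γ-32P-ATP. Phosphorylation was read by phosphorimaging spots on streptavidin membranes and quantifying them by densitometry. Relative sub-library phosphorylation expresses each value as a ratio to the mean residue at that position.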

Sequence of MAPK13, construct: Full length, human (O15264 whole entry, looked up): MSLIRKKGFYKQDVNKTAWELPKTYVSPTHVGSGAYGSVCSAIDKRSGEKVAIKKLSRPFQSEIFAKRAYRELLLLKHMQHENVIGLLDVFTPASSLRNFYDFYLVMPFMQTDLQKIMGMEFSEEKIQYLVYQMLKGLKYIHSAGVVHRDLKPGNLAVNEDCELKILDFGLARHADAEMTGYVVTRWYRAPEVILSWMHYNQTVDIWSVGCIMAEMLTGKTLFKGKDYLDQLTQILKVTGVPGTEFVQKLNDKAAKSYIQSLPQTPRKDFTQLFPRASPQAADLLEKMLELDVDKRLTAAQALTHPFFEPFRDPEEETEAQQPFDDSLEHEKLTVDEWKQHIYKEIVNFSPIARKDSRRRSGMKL
Sequence of MAPK8, construct: aa1-384, human (P45983 1-384, looked up): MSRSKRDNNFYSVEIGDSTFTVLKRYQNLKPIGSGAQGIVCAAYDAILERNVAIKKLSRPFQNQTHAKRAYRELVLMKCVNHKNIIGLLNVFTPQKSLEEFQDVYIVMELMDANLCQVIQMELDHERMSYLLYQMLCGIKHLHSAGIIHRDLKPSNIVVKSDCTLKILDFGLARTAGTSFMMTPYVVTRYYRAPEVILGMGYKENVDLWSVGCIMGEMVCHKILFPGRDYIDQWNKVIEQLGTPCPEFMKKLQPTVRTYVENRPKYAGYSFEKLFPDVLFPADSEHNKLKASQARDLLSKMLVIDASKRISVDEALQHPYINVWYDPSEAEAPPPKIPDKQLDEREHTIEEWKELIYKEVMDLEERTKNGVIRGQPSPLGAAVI
Sequence of MAP3K15, construct: aa631-922, human (Q6ZN16 631-922, looked up): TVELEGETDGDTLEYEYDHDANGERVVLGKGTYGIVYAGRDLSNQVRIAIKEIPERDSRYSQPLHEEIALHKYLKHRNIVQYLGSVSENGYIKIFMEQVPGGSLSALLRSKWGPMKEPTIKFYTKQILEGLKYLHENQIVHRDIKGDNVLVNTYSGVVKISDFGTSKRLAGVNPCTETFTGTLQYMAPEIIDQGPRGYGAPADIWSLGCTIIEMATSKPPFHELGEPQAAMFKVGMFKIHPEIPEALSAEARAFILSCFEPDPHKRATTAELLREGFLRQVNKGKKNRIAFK

MAP3K15, construct: aa631-922, human (from UniProt Q6ZN16)
relative phosphorylation
Conditions | at +1 | at +2 | at +3 | at +4 | at -1 | at -2 | at -3 | at -4 | at -5
A fixed | 0.514 | 0.74 | 1.02 | 0.926 | 1.01 | 1.79 | 1.14 | 1.02 | 0.99
D fixed | 0.2 | 0.473 | 0.377 | 0.494 | 0.459 | 0.498 | 0.88 | 0.771 | 0.79
E fixed | 0.257 | 0.337 | 0.401 | 0.534 | 0.471 | 0.513 | 0.73 | 0.739 | 0.743
F fixed | 1.94 | 1.79 | 0.942 | 0.898 | 0.745 | 0.735 | 0.771 | 0.855 | 1.1
G fixed | 0.39 | 0.733 | 1.07 | 1.07 | 2.13 | 1.26 | 1.04 | 1.29 | 1.24
H fixed | 1.08 | 1.01 | 1.04 | 1.04 | 0.94 | 0.852 | 1.07 | 0.963 | 1.17
I fixed | 1.94 | 0.567 | 1.09 | 1.13 | 0.415 | 0.859 | 0.687 | 0.668 | 0.761
K fixed | 0.39 | 1.48 | 1.14 | 1.82 | 1.43 | 0.864 | 1.18 | 1.06 | 1.05
L fixed | 1.41 | 0.76 | 1.01 | 0.885 | 0.828 | 0.983 | 0.799 | 0.788 | 0.759
M fixed | 1.18 | 0.952 | 1.02 | 0.926 | 0.963 | 1.07 | 0.837 | 0.896 | 0.929
N fixed | 0.439 | 0.782 | 0.971 | 0.91 | 1.28 | 1.26 | 1.18 | 1.19 | 0.988
P fixed | 0.352 | 0.676 | 1.08 | 0.971 | 1.15 | 1.63 | 1.6 | 1.37 | 1.2
Q fixed | 0.604 | 0.79 | 0.917 | 1.1 | 1.07 | 1.13 | 1.26 | 1.1 | 1.08
R fixed | 0.481 | 1.7 | 1.39 | 1.2 | 1.73 | 0.885 | 1.21 | 1.15 | 1.03
V fixed | 1.84 | 0.617 | 1.12 | 0.866 | 0.524 | 1.13 | 0.776 | 0.888 | 1.24
W fixed | 1.83 | 1.02 | 1.19 | 1.15 | 0.745 | 0.693 | 0.917 | 1.08 | 1.02
Y fixed | 2.16 | 2.58 | 1.24 | 1.07 | 1.12 | 0.848 | 0.925 | 1.18 | 0.915
pThr fixed | 0.588 | 0.497 | 0.73 | 0.394 | 0.639 | 1.06 | 1.04 | 0.928 | 1.09
pTyr fixed | 0.529 | 0.403 | 0.951 | 0.582 | 0.832 | 0.888 | 1.02 | 0.936 | 1.2

MAPK8, construct: aa1-384, human (from UniProt P45983)
relative phosphorylation
Conditions | at +1 | at +2 | at +3 | at +4 | at -1 | at -2 | at -3 | at -4 | at -5
A fixed | 0.237 | 0.912 | 1.46 | 1.17 | 1.03 | 2.05 | 1.17 | 1.13 | 1.18
D fixed | 0.295 | 1.06 | 1.86 | 1.25 | 0.995 | 0.9 | 1.65 | 1.61 | 1.42
E fixed | 0.222 | 0.814 | 1.86 | 1.34 | 0.888 | 0.556 | 1.5 | 1.41 | 1.06
F fixed | 0.309 | 0.673 | 0.845 | 0.778 | 0.6 | 0.456 | 0.663 | 0.858 | 0.94
G fixed | 0.676 | 1.22 | 1.49 | 1.07 | 1.31 | 0.724 | 1.1 | 1.03 | 1.06
H fixed | 0.21 | 0.841 | 1.02 | 1.05 | 0.938 | 0.446 | 0.937 | 1.07 | 1.07
I fixed | 0.247 | 1.67 | 0.698 | 1.11 | 0.674 | 1.41 | 0.797 | 0.728 | 0.763
K fixed | 0.195 | 0.501 | 0.528 | 0.698 | 0.95 | 0.348 | 0.571 | 0.75 | 0.791
L fixed | 0.322 | 1.45 | 0.881 | 1.02 | 1.45 | 2.55 | 0.898 | 0.753 | 0.685
M fixed | 0.25 | 2 | 0.922 | 1 | 1.43 | 1.3 | 0.984 | 0.962 | 0.744
N fixed | 0.191 | 0.793 | 0.84 | 0.819 | 0.861 | 0.469 | 1.06 | 0.846 | 0.826
P fixed | 12.8 | 0.568 | 0.629 | 1.57 | 1.52 | 2.46 | 1.33 | 1.25 | 1.39
Q fixed | 0.193 | 0.851 | 0.826 | 0.913 | 1.37 | 0.665 | 1.01 | 1.08 | 1.21
R fixed | 0.18 | 0.575 | 0.619 | 0.547 | 0.886 | 0.484 | 0.879 | 0.778 | 0.974
V fixed | 0.254 | 1.87 | 0.809 | 0.909 | 0.844 | 1.48 | 0.91 | 0.891 | 0.849
W fixed | 0.196 | 0.53 | 0.878 | 0.937 | 0.582 | 0.338 | 0.727 | 0.993 | 0.858
Y fixed | 0.213 | 0.663 | 0.837 | 0.81 | 0.671 | 0.381 | 0.808 | 0.865 | 1.19
pThr fixed | 0.612 | 2.32 | 1.64 | 1.91 | 0.582 | 1.28 | 1.14 | 1.37 | 1.34
pTyr fixed | 0.866 | 1.99 | 8.3 | 3.22 | 1.84 | 1.25 | 1.58 | 2.57 | 1.93

MAPK13, construct: Full length, human (from UniProt O15264)
relative phosphorylation
Conditions | at +1 | at +2 | at +3 | at +4 | at -1 | at -2 | at -3 | at -4 | at -5
A fixed | 0.304 | 0.921 | 1.42 | 1.32 | 1.31 | 1.25 | 1.26 | 1.2 | 1.3
D fixed | 0.162 | 0.572 | 1 | 1.09 | 1.11 | 0.486 | 1.09 | 1.46 | 1.26
E fixed | 0.123 | 0.497 | 1.07 | 0.846 | 0.937 | 0.434 | 1.21 | 1.39 | 1.34
F fixed | 0.148 | 0.663 | 0.413 | 1.06 | 0.768 | 0.457 | 1.04 | 0.933 | 0.923
G fixed | 0.975 | 1.31 | 1.13 | 1.39 | 0.948 | 0.896 | 1.64 | 1.16 | 1.33
H fixed | 0.143 | 0.694 | 0.936 | 0.884 | 0.927 | 0.405 | 0.773 | 0.879 | 1.05
I fixed | 0.172 | 1.27 | 0.948 | 1.02 | 0.529 | 1.52 | 0.912 | 1.02 | 0.923
K fixed | 0.148 | 0.751 | 0.57 | 0.665 | 0.681 | 0.25 | 0.522 | 0.662 | 0.855
L fixed | 0.208 | 1.27 | 1.08 | 0.988 | 1.24 | 2.47 | 0.884 | 1.05 | 0.974
M fixed | 0.182 | 1.04 | 0.659 | 1.28 | 1.77 | 1.49 | 1.14 | 1.22 | 1.16
N fixed | 0.16 | 0.438 | 0.64 | 0.849 | 0.782 | 0.512 | 0.815 | 0.983 | 1.1
P fixed | 12.9 | 1.05 | 2.58 | 0.942 | 2.31 | 3.75 | 1.08 | 0.999 | 0.962
Q fixed | 0.613 | 0.805 | 0.853 | 0.754 | 1.15 | 0.554 | 0.999 | 1.04 | 0.915
R fixed | 0.171 | 1.4 | 0.715 | 0.559 | 0.698 | 0.353 | 0.542 | 0.653 | 0.792
V fixed | 0.353 | 2.28 | 1.18 | 1.41 | 0.635 | 1.53 | 1.24 | 0.939 | 0.652
W fixed | 0.126 | 0.88 | 1.01 | 0.868 | 0.486 | 0.279 | 0.837 | 0.745 | 0.721
Y fixed | 0.14 | 1.16 | 0.791 | 1.07 | 0.711 | 0.36 | 1.02 | 0.665 | 0.735
pThr fixed | 0.158 | 1.67 | 0.939 | 0.853 | 0.309 | 0.376 | 1.14 | 1.49 | 1.7
pTyr fixed | 0.126 | 0.994 | 0.837 | 0.652 | 0.729 | 0.339 | 1.07 | 1.38 | 1.19

— the supplement of paper PMC9876800
